Test results published in article PMC7218104, “Consensus Design of an Evolved High-Redox Potential Laccase” (Frontiers in Bioengineering and Biotechnology, 2020).

Key:
Experiment in all cases: purified protein
Details in all cases: sodium phosphate/citrate buffer 100 mM, pH 4.0
purified protein [1] = substrate: COc1ccccc1O
purified protein [2] = substrate: CCn1c(=NN=c2sc3cc(S(=O)(=O)O)ccc3n2CC)sc2cc(S(=O)(=O)O)ccc21; type: biochemical, basidiomycete PM1
purified protein [3] = substrate: COc1cc(/C=C/C(=O)O)cc(OC)c1O; type: biochemical, basidiomycete PM1
purified protein [4] = substrate: COc1cccc(OC)c1O; type: biochemical, basidiomycete PM1

Row | Protein | Km (purified protein [1]) | kcat (purified protein [1]) | kcat/Km (purified protein [1]) | Km (purified protein [2]) | kcat (purified protein [2]) | kcat/Km (purified protein [2]) | Km (purified protein [3]) | kcat (purified protein [3]) | kcat/Km (purified protein [3]) | Km (purified protein [4]) | kcat (purified protein [4]) | kcat/Km (purified protein [4])
1 | OB-1 laccase (evolved variant of PM1 laccase, PM1Lac) (basidiomycete PM1; A260P/A482T/D302E/H229Y/S245G/S447N/V183A) (protein, mature laccase secreted from S. cerevisiae BJ5465 (pJRoC30) with evolved alpha-factor prepro-leader carrying V[alpha10]D, N[alpha23]K, A[alpha87]T; purified to homogeneity) SIGPVADLTISNGAVSPDGFSRQAILVNDVFPSPLITGNKGDRFQLNVIDNMTNHTMLKSTSIHWHGFFQHGTNWADGPAFVNQCPISTGHAFLYDFQVPDQAGTFWYHSHLSTQYCDGLRGPIVVYDPQDPHKSLYDVDDDSTVITLADWYHLAAKVGPAAPTADATLINGLGRSINTLNADLAVITVTKGKRYRFRLVSLSCDPNYTFSIDGHSLTVIEADGVNLKPQTVDSIQIFPAQRYSFVLNADQDVDNYWIRALPNSGTRNFDGGVNSAILRYEGAAPVEPTTTQTPSTQPLVESALTTLEGTAAPGNPTPGGVDLALNMAFGFAGGRFTINGASFTPPTVPVLLQILSGAQSAQDLLPSGSVYSLPANADIEISLPATSAAPGFPHPFHLHGHTFAVVRSAGSSTYNYANPVYRDVVNTGSPGDNVTIRFRTDNPGPWFLHCHIDFHLEAGFTVVMAEDIPDVAATNPVPQAWSDLCPTYDALSPDDQ | 2600 ± 400 µM | 117 s⁻¹ | 44600 M⁻¹ s⁻¹ | 7 ± 0.6 µM | 690 ± 20.2 s⁻¹ | 1.06e+08 M⁻¹ s⁻¹ | 320 ± 20 µM | 741 ± 14.1 s⁻¹ | 2.29e+06 M⁻¹ s⁻¹ | 150 ± 10 µM | 565 ± 13 s⁻¹ | 3.84e+06 M⁻¹ s⁻¹
2 | OB-1 laccase (evolved variant of PM1 laccase, PM1Lac) (basidiomycete PM1; A260P/A261G/A482T/D302E/H229Y/S245G/S447N/V183A) (protein, mature laccase secreted from S. cerevisiae BJ5465 (pJRoC30) with evolved alpha-factor prepro-leader carrying V[alpha10]D, N[alpha23]K, A[alpha87]T; purified to homogeneity) SIGPVADLTISNGAVSPDGFSRQAILVNDVFPSPLITGNKGDRFQLNVIDNMTNHTMLKSTSIHWHGFFQHGTNWADGPAFVNQCPISTGHAFLYDFQVPDQAGTFWYHSHLSTQYCDGLRGPIVVYDPQDPHKSLYDVDDDSTVITLADWYHLAAKVGPAAPTADATLINGLGRSINTLNADLAVITVTKGKRYRFRLVSLSCDPNYTFSIDGHSLTVIEADGVNLKPQTVDSIQIFPGQRYSFVLNADQDVDNYWIRALPNSGTRNFDGGVNSAILRYEGAAPVEPTTTQTPSTQPLVESALTTLEGTAAPGNPTPGGVDLALNMAFGFAGGRFTINGASFTPPTVPVLLQILSGAQSAQDLLPSGSVYSLPANADIEISLPATSAAPGFPHPFHLHGHTFAVVRSAGSSTYNYANPVYRDVVNTGSPGDNVTIRFRTDNPGPWFLHCHIDFHLEAGFTVVMAEDIPDVAATNPVPQAWSDLCPTYDALSPDDQ | 3400 ± 400 µM | 171 s⁻¹ | 50300 M⁻¹ s⁻¹ | 9 ± 0.9 µM | 1330 ± 42.3 s⁻¹ | 1.4e+08 M⁻¹ s⁻¹ | 450 ± 60 µM | 1430 ± 65.2 s⁻¹ | 3.18e+06 M⁻¹ s⁻¹ | 230 ± 10 µM | 1130 ± 18.4 s⁻¹ | 5.56e+06 M⁻¹ s⁻¹
